How the values were obtained:
[1] = biological target: binding partner (antigen) of C5A (XPA23); experiment: Biacore, K-off, fold vs original
[2] = biological target: binding partner of C5A (XPA23); experiment: Biacore

B1: C5A (XPA23) VH R59P (antibody, V domains shown)
VH: EVQLLESGGGLVQPGGSLRLSCAASGFTFSKYFMFWVRQAPGKGLEWVSVISPSGGMTPYADSVKGRFTISRDNSKNTLYLQMNSLRAEDTAVYYCARVGYGGNSDYWGQGTLVTVSS
VL: DIQMTQSPSSVSASVGDRLTIICRASQDINRWLAWYQQTPGNAPKLLIHSATSLQSGVPSRFSGSGSGTDFTLTINSLQPEDFATYYCQQADSFPLTFGGGTKVEIK
Question: Which fold difference in affinity vs original [1] does the source give for B1 here?
Answer: 0.07 fold

Question: And the fold difference in affinity vs original [2]?
Answer: 0.07 fold

B2: C5A (XPA23) VH V99F (antibody, V domains shown)
VH: EVQLLESGGGLVQPGGSLRLSCAASGFTFSKYFMFWVRQAPGKGLEWVSVISPSGGMTRYADSVKGRFTISRDNSKNTLYLQMNSLRAEDTAVYYCARFGYGGNSDYWGQGTLVTVSS
VL: DIQMTQSPSSVSASVGDRLTIICRASQDINRWLAWYQQTPGNAPKLLIHSATSLQSGVPSRFSGSGSGTDFTLTINSLQPEDFATYYCQQADSFPLTFGGGTKVEIK
Question: How did the fold difference in affinity vs original [1] turn out when B2 was run?
Answer: 0.03 fold

Question: What about the fold affinity vs original [2] of the same binder?
Answer: 0.03 fold

B3: C5A (XPA23) VH Y101W (antibody, V domains shown)
VH: EVQLLESGGGLVQPGGSLRLSCAASGFTFSKYFMFWVRQAPGKGLEWVSVISPSGGMTRYADSVKGRFTISRDNSKNTLYLQMNSLRAEDTAVYYCARVGWGGNSDYWGQGTLVTVSS
VL: DIQMTQSPSSVSASVGDRLTIICRASQDINRWLAWYQQTPGNAPKLLIHSATSLQSGVPSRFSGSGSGTDFTLTINSLQPEDFATYYCQQADSFPLTFGGGTKVEIK
Question: Which fold difference in affinity vs original [1] does the source give for B3 here?
Answer: 0.81 fold

Question: And the fold affinity vs original [2]?
Answer: 0.81 fold

B4: C5A (XPA23) VH Y101I (antibody, V domains shown)
VH: EVQLLESGGGLVQPGGSLRLSCAASGFTFSKYFMFWVRQAPGKGLEWVSVISPSGGMTRYADSVKGRFTISRDNSKNTLYLQMNSLRAEDTAVYYCARVGIGGNSDYWGQGTLVTVSS
VL: DIQMTQSPSSVSASVGDRLTIICRASQDINRWLAWYQQTPGNAPKLLIHSATSLQSGVPSRFSGSGSGTDFTLTINSLQPEDFATYYCQQADSFPLTFGGGTKVEIK
Question: Which results are given for B4?
Answer: fold difference in affinity vs original [1]: 0.83 fold; fold difference in affinity vs original [2]: 0.83 fold

B5: C5A (XPA23) VH G103V (antibody, V domains shown)
VH: EVQLLESGGGLVQPGGSLRLSCAASGFTFSKYFMFWVRQAPGKGLEWVSVISPSGGMTRYADSVKGRFTISRDNSKNTLYLQMNSLRAEDTAVYYCARVGYGVNSDYWGQGTLVTVSS
VL: DIQMTQSPSSVSASVGDRLTIICRASQDINRWLAWYQQTPGNAPKLLIHSATSLQSGVPSRFSGSGSGTDFTLTINSLQPEDFATYYCQQADSFPLTFGGGTKVEIK
Question: Which results are given for B5?
Answer: fold difference in affinity vs original [1]: 2.56 fold; fold difference in affinity vs original [2]: 2.56 fold

B6: C5A (XPA23) VH N104A (antibody, V domains shown)
VH: EVQLLESGGGLVQPGGSLRLSCAASGFTFSKYFMFWVRQAPGKGLEWVSVISPSGGMTRYADSVKGRFTISRDNSKNTLYLQMNSLRAEDTAVYYCARVGYGGASDYWGQGTLVTVSS
VL: DIQMTQSPSSVSASVGDRLTIICRASQDINRWLAWYQQTPGNAPKLLIHSATSLQSGVPSRFSGSGSGTDFTLTINSLQPEDFATYYCQQADSFPLTFGGGTKVEIK
Question: For B6, which fold difference in affinity vs original [1] is on record?
Answer: 1.61 fold

Question: What about the fold difference in affinity vs original [2] of the same binder?
Answer: 1.61 fold

B7: C5A (XPA23) VH N104V (antibody, V domains shown)
VH: EVQLLESGGGLVQPGGSLRLSCAASGFTFSKYFMFWVRQAPGKGLEWVSVISPSGGMTRYADSVKGRFTISRDNSKNTLYLQMNSLRAEDTAVYYCARVGYGGVSDYWGQGTLVTVSS
VL: DIQMTQSPSSVSASVGDRLTIICRASQDINRWLAWYQQTPGNAPKLLIHSATSLQSGVPSRFSGSGSGTDFTLTINSLQPEDFATYYCQQADSFPLTFGGGTKVEIK
Question: What does the source list for B7?
Answer: fold difference in affinity vs original [1]: 1.27 fold; fold difference in affinity vs original [2]: 1.27 fold

B8: C5A (XPA23) VH Y101V (antibody, V domains shown)
VH: EVQLLESGGGLVQPGGSLRLSCAASGFTFSKYFMFWVRQAPGKGLEWVSVISPSGGMTRYADSVKGRFTISRDNSKNTLYLQMNSLRAEDTAVYYCARVGVGGNSDYWGQGTLVTVSS
VL: DIQMTQSPSSVSASVGDRLTIICRASQDINRWLAWYQQTPGNAPKLLIHSATSLQSGVPSRFSGSGSGTDFTLTINSLQPEDFATYYCQQADSFPLTFGGGTKVEIK
Question: Which fold difference in affinity vs original [1] does the source give for B8 here?
Answer: 0.09 fold

Question: What about the fold difference in affinity vs original [2] of the same binder?
Answer: 0.09 fold

B9: C5A (XPA23) VH Y101F (antibody, V domains shown)
VH: EVQLLESGGGLVQPGGSLRLSCAASGFTFSKYFMFWVRQAPGKGLEWVSVISPSGGMTRYADSVKGRFTISRDNSKNTLYLQMNSLRAEDTAVYYCARVGFGGNSDYWGQGTLVTVSS
VL: DIQMTQSPSSVSASVGDRLTIICRASQDINRWLAWYQQTPGNAPKLLIHSATSLQSGVPSRFSGSGSGTDFTLTINSLQPEDFATYYCQQADSFPLTFGGGTKVEIK
Question: What does the source list for B9?
Answer: fold difference in affinity vs original [1]: 0.85 fold; fold affinity vs original [2]: 0.85 fold

B10: C5A (XPA23) VH S105V (antibody, V domains shown)
VH: EVQLLESGGGLVQPGGSLRLSCAASGFTFSKYFMFWVRQAPGKGLEWVSVISPSGGMTRYADSVKGRFTISRDNSKNTLYLQMNSLRAEDTAVYYCARVGYGGNVDYWGQGTLVTVSS
VL: DIQMTQSPSSVSASVGDRLTIICRASQDINRWLAWYQQTPGNAPKLLIHSATSLQSGVPSRFSGSGSGTDFTLTINSLQPEDFATYYCQQADSFPLTFGGGTKVEIK
Question: For B10, which fold difference in affinity vs original [1] is on record?
Answer: 0.08 fold

Question: What about the fold difference in affinity vs original [2] of the same binder?
Answer: 0.08 fold

B11: C5A (XPA23) VH S105A (antibody, V domains shown)
VH: EVQLLESGGGLVQPGGSLRLSCAASGFTFSKYFMFWVRQAPGKGLEWVSVISPSGGMTRYADSVKGRFTISRDNSKNTLYLQMNSLRAEDTAVYYCARVGYGGNADYWGQGTLVTVSS
VL: DIQMTQSPSSVSASVGDRLTIICRASQDINRWLAWYQQTPGNAPKLLIHSATSLQSGVPSRFSGSGSGTDFTLTINSLQPEDFATYYCQQADSFPLTFGGGTKVEIK
Question: What does the source list for B11?
Answer: fold difference in affinity vs original [1]: 0.84 fold; fold difference in affinity vs original [2]: 0.84 fold

B12: C5A (XPA23) VH V99A (antibody, V domains shown)
VH: EVQLLESGGGLVQPGGSLRLSCAASGFTFSKYFMFWVRQAPGKGLEWVSVISPSGGMTRYADSVKGRFTISRDNSKNTLYLQMNSLRAEDTAVYYCARAGYGGNSDYWGQGTLVTVSS
VL: DIQMTQSPSSVSASVGDRLTIICRASQDINRWLAWYQQTPGNAPKLLIHSATSLQSGVPSRFSGSGSGTDFTLTINSLQPEDFATYYCQQADSFPLTFGGGTKVEIK
Question: What does the source list for B12?
Answer: fold difference in affinity vs original [1]: 0.03 fold; fold difference in affinity vs original [2]: 0.03 fold

B13: C5A (XPA23) VH Y101L (antibody, V domains shown)
VH: EVQLLESGGGLVQPGGSLRLSCAASGFTFSKYFMFWVRQAPGKGLEWVSVISPSGGMTRYADSVKGRFTISRDNSKNTLYLQMNSLRAEDTAVYYCARVGLGGNSDYWGQGTLVTVSS
VL: DIQMTQSPSSVSASVGDRLTIICRASQDINRWLAWYQQTPGNAPKLLIHSATSLQSGVPSRFSGSGSGTDFTLTINSLQPEDFATYYCQQADSFPLTFGGGTKVEIK
Question: B13 was tested. Which fold difference in affinity vs original [1] did it give?
Answer: 1.91 fold

Question: And the fold difference in affinity vs original [2]?
Answer: 1.91 fold

B14: C5A (XPA23) VH G103A (antibody, V domains shown)
VH: EVQLLESGGGLVQPGGSLRLSCAASGFTFSKYFMFWVRQAPGKGLEWVSVISPSGGMTRYADSVKGRFTISRDNSKNTLYLQMNSLRAEDTAVYYCARVGYGANSDYWGQGTLVTVSS
VL: DIQMTQSPSSVSASVGDRLTIICRASQDINRWLAWYQQTPGNAPKLLIHSATSLQSGVPSRFSGSGSGTDFTLTINSLQPEDFATYYCQQADSFPLTFGGGTKVEIK
Question: How did the fold difference in affinity vs original [1] turn out when B14 was run?
Answer: 0.03 fold

Question: And the fold difference in affinity vs original [2]?
Answer: 0.03 fold

B15: C5A (XPA23) VH N104G (antibody, V domains shown)
VH: EVQLLESGGGLVQPGGSLRLSCAASGFTFSKYFMFWVRQAPGKGLEWVSVISPSGGMTRYADSVKGRFTISRDNSKNTLYLQMNSLRAEDTAVYYCARVGYGGGSDYWGQGTLVTVSS
VL: DIQMTQSPSSVSASVGDRLTIICRASQDINRWLAWYQQTPGNAPKLLIHSATSLQSGVPSRFSGSGSGTDFTLTINSLQPEDFATYYCQQADSFPLTFGGGTKVEIK
Question: What does the source list for B15?
Answer: fold difference in affinity vs original [1]: 1.21 fold; fold difference in affinity vs original [2]: 1.21 fold

B16: C5A (XPA23) VH N104L (antibody, V domains shown)
VH: EVQLLESGGGLVQPGGSLRLSCAASGFTFSKYFMFWVRQAPGKGLEWVSVISPSGGMTRYADSVKGRFTISRDNSKNTLYLQMNSLRAEDTAVYYCARVGYGGLSDYWGQGTLVTVSS
VL: DIQMTQSPSSVSASVGDRLTIICRASQDINRWLAWYQQTPGNAPKLLIHSATSLQSGVPSRFSGSGSGTDFTLTINSLQPEDFATYYCQQADSFPLTFGGGTKVEIK
Question: Which results are given for B16?
Answer: fold difference in affinity vs original [1]: 1.19 fold; fold difference in affinity vs original [2]: 1.19 fold

B17: C5A (XPA23) VH G100W (antibody, V domains shown)
VH: EVQLLESGGGLVQPGGSLRLSCAASGFTFSKYFMFWVRQAPGKGLEWVSVISPSGGMTRYADSVKGRFTISRDNSKNTLYLQMNSLRAEDTAVYYCARVWYGGNSDYWGQGTLVTVSS
VL: DIQMTQSPSSVSASVGDRLTIICRASQDINRWLAWYQQTPGNAPKLLIHSATSLQSGVPSRFSGSGSGTDFTLTINSLQPEDFATYYCQQADSFPLTFGGGTKVEIK
Question: For B17, which fold difference in affinity vs original [1] is on record?
Answer: 0.05 fold

Question: What about the fold affinity vs original [2] of the same binder?
Answer: 0.05 fold

B18: C5A (XPA23) VH S105G (antibody, V domains shown)
VH: EVQLLESGGGLVQPGGSLRLSCAASGFTFSKYFMFWVRQAPGKGLEWVSVISPSGGMTRYADSVKGRFTISRDNSKNTLYLQMNSLRAEDTAVYYCARVGYGGNGDYWGQGTLVTVSS
VL: DIQMTQSPSSVSASVGDRLTIICRASQDINRWLAWYQQTPGNAPKLLIHSATSLQSGVPSRFSGSGSGTDFTLTINSLQPEDFATYYCQQADSFPLTFGGGTKVEIK
Question: What does the source list for B18?
Answer: fold difference in affinity vs original [1]: 0.12 fold; fold difference in affinity vs original [2]: 0.12 fold

B19: C5A (XPA23) VH Y101A (antibody, V domains shown)
VH: EVQLLESGGGLVQPGGSLRLSCAASGFTFSKYFMFWVRQAPGKGLEWVSVISPSGGMTRYADSVKGRFTISRDNSKNTLYLQMNSLRAEDTAVYYCARVGAGGNSDYWGQGTLVTVSS
VL: DIQMTQSPSSVSASVGDRLTIICRASQDINRWLAWYQQTPGNAPKLLIHSATSLQSGVPSRFSGSGSGTDFTLTINSLQPEDFATYYCQQADSFPLTFGGGTKVEIK
Question: With B19 as the binder, how does the fold difference in affinity vs original [1] read?
Answer: 0.04 fold

Question: And the fold difference in affinity vs original [2]?
Answer: 0.04 fold

B20: C5A (XPA23) VH Y101P (antibody, V domains shown)
VH: EVQLLESGGGLVQPGGSLRLSCAASGFTFSKYFMFWVRQAPGKGLEWVSVISPSGGMTRYADSVKGRFTISRDNSKNTLYLQMNSLRAEDTAVYYCARVGPGGNSDYWGQGTLVTVSS
VL: DIQMTQSPSSVSASVGDRLTIICRASQDINRWLAWYQQTPGNAPKLLIHSATSLQSGVPSRFSGSGSGTDFTLTINSLQPEDFATYYCQQADSFPLTFGGGTKVEIK
Question: For B20, which fold difference in affinity vs original [1] is on record?
Answer: 0.04 fold

Question: And the fold difference in affinity vs original [2]?
Answer: 0.04 fold

From patent US20110118447A1
